According to article PMC12525094:
pKd: −log10 of the molar value.

Experiments:
[1] = target: Class 1 phytoglobin from Beta vulgaris (BvPgb 1.2), cysteine-to-alanine variant C86A (Beta vulgaris (sugar beet)); assay: other fluorescence titration; isothermal spectral shift (SpS), Monolith X, dual emission ratio 670/650 nm; NHS-dye-labelled Pgb mixed with a sixteen-step dilution of GAPDH (highest 32 µM), equilibrated 15 min, in capillaries; PBS pH 7.4 with 0.05% Tween20; 25 °C
[2] = target: Class 1 phytoglobin from Beta vulgaris (BvPgb 1.2), recombinant wild type (Beta vulgaris (sugar beet)); assay: as above
[3] = test system: BvPgb 1.2 C86A (Beta vulgaris); assay: isothermal spectral shift (Monolith X); details: PBS pH 7.4, 0.05% Tween20, 25 °C, 15 min equilibration, 16-step DNA dilution, top DNA stock 673 nM (i.e. 2.5 ng pET19b/µL; the two figures are …)
[4] = test system: BvPgb 1.2 rWT (class 1 phytoglobin) (Beta vulgaris); assay: isothermal spectral shift (Monolith X); details: PBS pH 7.4, 0.05% Tween20, 25 °C, 15 min equilibration, 16-step DNA dilution, top DNA stock 673 nM (i.e. 2.5 ng pET19b/µL; the two figures are …)
[5] = closed (hexacoordinate) phase of biphasic fit
[6] = open (pentacoordinate) phase of biphasic fit

Row | pKd [1] | pKd [2] | Substance | pKd [3, 5] | pKd [3, 6] | pKd [4, 5] | pKd [4, 6]
1 | 6.92 | 6.59 | Glyceraldehyde-3-phosphate dehydrogenase (GAPDH), human (from UniProt P04406 1-335) (enzyme) | – | – | – | –
2 | – | – | pET19b plasmid DNA | 9.64 | 7.30 | 10.00 | 6.92
